Results as given in patent US20230080534A1, “SEMG2 ANTIBODY AND USE THEREOF” (SHANGHAI BIOTROY BIOTECHNIQUE CO., LTD., priority 2020, published 2023).
Blank lines part the entries; values can stand above or below the substance they belong to. No end group written: not given here.

How the values were obtained:
CD27 protein = target: T1, CD27 protein (Homo sapiens, UniProt P26842); assay: ELISA binding of BSA-conjugated SEMG2 (497-509) polypeptides to CD27; conditions: versus negative BSA control
T1 construct: the extracellular region of human CD27 protein fused to the Fe fragment of human antibody
T1 sequence (P26842 20-191 limits assumed): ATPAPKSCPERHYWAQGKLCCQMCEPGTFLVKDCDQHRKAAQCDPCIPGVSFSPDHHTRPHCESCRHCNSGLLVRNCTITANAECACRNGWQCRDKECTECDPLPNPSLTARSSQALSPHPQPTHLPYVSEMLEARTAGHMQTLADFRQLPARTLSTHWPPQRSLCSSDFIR
Procedure: (§1) FIG. 6 depicts the binding between SEMG2 epitope polypeptides and CD27, and its competitive inhibition of full-length SEMG2 binding to CD27. […] As shown in the figure, different concentrations of peptides are firstly co-incubated with CD27-Fc for binding, and then added into the micro-reaction plate pre-coated with SEMG2 protein. After co-incubation, the unconjugated molecules are washed off, and anti-Fc secondary antibody-HRP are then used for detecting and developing.
These mutant plasmids and CD27 expression vector were co-transfected into HEK293 cells, and the degree of GFP-fused 1-13 polypeptide variants binding to CD27 was detected by co-immunoprecipitation assay. […] Therefore, it can be seen that the amino acids at positions 497, 498, 499, 500, 501, 502, 503, 504, 505, 506 and 508 of SEMG2 have obvious effects on the binding to CD27. The peptide sequence 497-509 was coupled to BSA, and coated onto a 96-well microplate. CD27-hFc at different concentrations was used as the primary antibody to detect the ability of CD27 to bind to the peptide sequence.

[1] = target: T2, binding between full-length SEMG2 and CD27 (Homo sapiens, UniProt P26842); assay: Peptide competition ELISA: CD27-Fc pre-incubated with peptide, added to SEMG2-coated plate; conditions: different concentrations of peptide co-incubated with CD27-Fc
T2 construct: the extracellular region of human CD27 protein fused to the Fe fragment of human antibody
T2 sequence (P26842 20-191 limits assumed): T1 sequence (P26842 20-191 limits assumed)
Procedure: as §1

mouse CD27 = target: T3, mouse CD27 (Mus musculus, UniProt P41272); assay: Co-immunoprecipitation of GFP-fused SEMG2 fragments with mouse CD27 in co-transfected HEK293 cells; format: binding; conditions: GFP-fused fragment co-transfected with mouse CD27 into HEK293 cells
T3 construct: HA; expressed in transfected cells; host or cells: HEK293
T3 sequence (P41272 24-250): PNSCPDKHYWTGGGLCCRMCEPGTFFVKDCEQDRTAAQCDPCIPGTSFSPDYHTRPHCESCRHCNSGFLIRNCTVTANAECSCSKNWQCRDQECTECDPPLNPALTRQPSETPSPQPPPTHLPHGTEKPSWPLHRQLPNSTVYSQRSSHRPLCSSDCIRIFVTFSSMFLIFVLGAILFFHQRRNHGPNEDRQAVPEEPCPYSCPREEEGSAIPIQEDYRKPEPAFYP
Procedure: (§2) In co-immunoprecipitation experiment, cells were lysed in IP buffer (Thermo Scientific) and Roche complete protease inhibitor for 10 minutes, followed by the addition of benzonase (sigma) for 25 minutes at room temperature. The lysate was then centrifuged at 15,000 rpm at 4° C. to remove the precipitate. The supernatant was then incubated with primary antibody slowly rotated overnight at 4° C., followed by the addition of protein A or protein G dynabeads and incubated at 4° C. for 2 hours, washed for 4 times in PBST (PBS with 0.01% Tween 20), eluted with 50 mM DTT in SDS sample buffer for 10 minutes at 100° C., separated with SDS, and immunoblotted as previously described.
To further confirm the key amino acids in the binding between SEMG2-P5 sequence and CD27, SEMG2(497-509) fragment was selected and named as SEMG2-P7 (the specific sequence is QIEKLVEGKSQIQ, abbreviated as P7 or SP7). SEMG2-P7(497-509), SEMG2-P5(positive control), SEMG2-P4 (negative control) or SEMG2-P6 (negative control) was co-transfected with CD27 into HEK293 cells respectively, including human CD27 and mouse CD27. […] This co-immunoprecipitation experiment confirmed that SEMG2(497-509) is the main structure that binds to human and mouse CD27.

human CD27 = target: T4, human CD27 (Homo sapiens, UniProt P26842); assay: Co-immunoprecipitation of GFP-fused SEMG2 fragments with CD27 in co-transfected HEK293 cells; format: binding; conditions: GFP-fused fragment co-transfected with CD27 into HEK293 cells
T4 construct: HA; expressed in transfected cells; host or cells: HEK293
T4 sequence (P26842 20-260): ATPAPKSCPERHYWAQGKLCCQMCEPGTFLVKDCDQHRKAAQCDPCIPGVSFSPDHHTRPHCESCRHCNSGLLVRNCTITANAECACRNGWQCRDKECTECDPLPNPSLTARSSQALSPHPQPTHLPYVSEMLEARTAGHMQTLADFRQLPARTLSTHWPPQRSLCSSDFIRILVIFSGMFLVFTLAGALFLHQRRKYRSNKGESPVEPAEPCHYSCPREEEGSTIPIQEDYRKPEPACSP
Procedure: as §2
To further confirm which part of SEMG-2 binds to CD27, fragments of SEMG2 protein were designed. The amino acid sequence of full-length SEMG2 protein (SEQ ID NO:1) was divided into 6 segments of sequences, fused with GFP and named as SEMG2-P1, SEMG2-P2, SEMG2-P3, SEMG2-P4, SEMG2-P5 and SEMG2-P6 (See Table 1 for specific sequences, with corresponding abbreviation as P1-P6 respectively). Plasmids expressing these amino acid sequences were co-transfected with CD27 into HEK293 cells, and co-immunoprecipitation experiments were performed to identify the main fragment of SEMG2 that binds to CD27. […]

Substance: BSA-conjugated human SEMG2 (497-509) polypeptide: human SEMG2 (497-509) peptide coupled to BSA (QIEKLVEGKSQIQ; also: coupled to BSA, site not given here)
binding to CD27 protein on the microplate (CD27 protein): can bind

Substance: QIEKLVEGKSQ (UNSURE (1)..(11) Epitope peptides)
inhibitory effect on the binding between full-length SEMG2 and CD27 [1]: can inhibit the binding

Substance: QIEKLVEGKSQIQ (UNSURE (1)..(13) Epitope peptides) [SEMG2-P7]
binding to mouse CD27 (co-immunoprecipitation) (mouse CD27): bind
binding to CD27 (co-immunoprecipitation) (human CD27): bind
inhibitory effect on the binding between full-length SEMG2 and CD27 [1]: can inhibit the binding

Other lines, results leading:

inhibitory effect on the binding between full-length SEMG2 and CD27 [1]: can inhibit the binding
Substance: QIAKLVEGKSQ [SEMG2-derived polypeptide derivative]

inhibitory effect on the binding between full-length SEMG2 and CD27 [1]: can inhibit the binding
Substance: QIEKLVEGKSQI (UNSURE (1)..(12) Epitope peptides)
